This is an account of results in patent publication US20200024360A1 (Janssen / Centocor, published 2020).

For assay [1], the target named is T1, recombinant chimpanzee PSMA extracellular domain (ECD) protein (Pan troglodytes, UniProt Q04609 44-750 (human entry)).
T1 construct: also called Chimp PSMA ECD; PSMG8
T1 chain: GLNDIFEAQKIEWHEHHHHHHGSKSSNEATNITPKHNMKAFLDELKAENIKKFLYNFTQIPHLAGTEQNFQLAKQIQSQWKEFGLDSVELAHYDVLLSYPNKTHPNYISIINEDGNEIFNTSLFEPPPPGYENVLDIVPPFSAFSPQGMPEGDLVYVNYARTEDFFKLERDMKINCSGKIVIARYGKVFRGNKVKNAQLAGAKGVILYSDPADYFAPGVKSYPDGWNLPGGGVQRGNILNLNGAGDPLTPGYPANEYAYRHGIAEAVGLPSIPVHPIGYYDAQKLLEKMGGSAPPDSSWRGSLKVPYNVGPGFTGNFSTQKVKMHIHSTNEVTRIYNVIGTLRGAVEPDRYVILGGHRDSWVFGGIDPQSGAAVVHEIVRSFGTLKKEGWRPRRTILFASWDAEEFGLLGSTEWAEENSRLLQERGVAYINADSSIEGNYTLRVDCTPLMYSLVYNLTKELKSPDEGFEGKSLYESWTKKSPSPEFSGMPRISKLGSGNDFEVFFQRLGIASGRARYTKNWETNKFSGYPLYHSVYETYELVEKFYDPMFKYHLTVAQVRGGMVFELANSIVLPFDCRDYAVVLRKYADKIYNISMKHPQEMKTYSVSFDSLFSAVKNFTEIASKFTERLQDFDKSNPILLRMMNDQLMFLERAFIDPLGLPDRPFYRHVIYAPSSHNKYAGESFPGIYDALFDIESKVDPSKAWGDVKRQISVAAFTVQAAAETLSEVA
Put plainly: SPR ProteOn.

The target in assay [2] is T1, recombinant chimpanzee PSMA …. The experiment in a line: SPR ProteOn, bsAb captured by anti-Fc. The method, then:
The interactions of PSMA×CD3 bispecific mAbs with target (recombinant Chimp, PSMA) were studied by Surface Plasmon Resonance (SPR) using a ProteOn XPR36 system (BioRad). […] Approximately 4400 RU (response units) of anti-Human IgG Fc antibodies were immobilized. The kinetic experiments were performed at 25° C. in running buffer (DPBS+0.03% P20+100 μg/ml BSA). […] The association phase was monitored for 3 minutes at 50 μL/min, then followed by 15 minutes of buffer flow (dissociation phase). The chip surface was regenerated with two 18 second pulses of 100 mM Phosphoric acid (H₃PO₄, Sigma, cat #7961) at 100 μL/min.
The collected data were processed using ProteOn Manager software. First, the data was corrected for background using inter-spots. Then, double reference subtraction of the data was performed by using the buffer injection for analyte injections. The kinetic analysis of the data was performed using a Langmuir 1:1 binding model.

Assay [3] concerns the target T2, Cynomolgous monkey PSMA, full length (Macaca fascicularis, UniProt Q04609 1-750 (human entry)).
T2 construct: On transfected HEK293F cells; also called cyno PSMA; EHH56646.1
T2 chain: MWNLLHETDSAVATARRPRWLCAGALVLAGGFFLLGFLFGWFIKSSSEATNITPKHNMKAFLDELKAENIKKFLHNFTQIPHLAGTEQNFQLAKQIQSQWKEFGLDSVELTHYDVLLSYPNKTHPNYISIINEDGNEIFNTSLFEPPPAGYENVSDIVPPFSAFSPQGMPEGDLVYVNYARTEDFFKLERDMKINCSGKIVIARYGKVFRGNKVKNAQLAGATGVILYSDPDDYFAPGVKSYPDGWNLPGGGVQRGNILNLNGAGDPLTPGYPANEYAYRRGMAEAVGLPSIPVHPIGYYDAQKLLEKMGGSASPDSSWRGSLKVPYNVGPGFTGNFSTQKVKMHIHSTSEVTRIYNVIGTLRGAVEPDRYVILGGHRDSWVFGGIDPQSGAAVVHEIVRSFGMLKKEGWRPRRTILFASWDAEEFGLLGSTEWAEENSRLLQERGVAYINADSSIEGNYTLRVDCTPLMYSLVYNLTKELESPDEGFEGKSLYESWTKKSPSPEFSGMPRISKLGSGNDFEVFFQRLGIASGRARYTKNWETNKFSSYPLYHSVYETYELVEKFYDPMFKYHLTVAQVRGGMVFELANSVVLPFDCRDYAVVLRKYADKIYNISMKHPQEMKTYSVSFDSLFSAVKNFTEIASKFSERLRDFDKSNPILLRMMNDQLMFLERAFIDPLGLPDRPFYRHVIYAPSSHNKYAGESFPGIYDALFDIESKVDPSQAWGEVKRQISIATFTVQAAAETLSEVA
The experiment in a line: FACS, whole cell binding, cyno PSMA HEK; calculated EC50. In outline:
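Bispecific Ab titration on PSMA-HEK (chimp/cyno), same cell number per point; anti-huKappa-PE detection; MFI by FACS. Log10 transform, nonlinear regression → EC50, ug/ml converted to molar using bispecific MW.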

Assay [4] deals with T3, human PSMA (prostate specific membrane antigen), full length (human, UniProt Q04609 1-750).
T3 construct: On LNCaP or C4-2B cells (endogenous) or transduced HEK293F cells; also called FOLH1_HUMAN; hPSMA
The experiment in a line: FACS, whole cell binding, LNCaP; calculated EC50.

A word on the Kd: it is the free concentration of one partner at which half of the binding sites on the other are occupied at equilibrium, for simple one-to-one binding. Broadly, the koff is the first-order rate constant of dissociation. The term kon denotes the second-order rate constant of association. Broadly, the EC50 is the concentration that produces a half-maximal response.

B1: PS3B27 (bispecific antibody, human IgG4 S228P, kappa, lambda, F234A L235A)
heavy 1: not shown
light 1: not shown
heavy 2: EVQLVESGGGLVQPGGSLRLSCAASGFTFNTYAMNWVRQAPGKGLEWVARIRSKYNNYATYYAASVKGRFTISRDDSKNSLYLQMNSLKTEDTAVYYCARHGNFGNSYVSWFAYWGQGTLVTVSSASTKGPSVFPLAPCSRSTSESTAALGCLVKDYFPEPVTVSWNSGALTSGVHTFPAVLQSSGLYSLSSVVTVPSSSLGTKTYTCNVDHKPSNTKVDKRVESKYGPPCPPCPAPEAAGGPSVFLFPPKPKDTLMISRTPEVTCVVVDVSQEDPEVQFNWYVDGVEVHNAKTKPREEQFNSTYRVVSVLTVLHQDWLNGKEYKCKVSNKGLPSSIEKTISKAKGQPREPQVYTLPPSQEEMTKNQVSLTCLVKGFYPSDIAVEWESNGQPENNYKTTPPVLDSDGSFLLYSKLTVDKSRWQEGNVFSCSVMHEALHNHYTQKSLSLSLGK
light 2: QTVVTQEPSLTVSPGGTVTLTCRSSTGAVTTSNYANWVQQKPGQAPRGLIGGTNKRAPGTPARFSGSLLGGKAALTLSGVQPEDEAEYYCALWYSNLWVFGGGTKLTVLGQPKAAPSVTLFPPSSEELQANKATLVCLISDFYPGAVTVAWKADSSPVKAGVETTTPSKQSNNKYAASSYLSLTPEQWKSHRSYSCQVTHEGSTVEKTVAPTECS
notes: IgG4 PAA; PSMA arm chains first, then CD3 arm (F405L, R409K); also called PSMB127 x CD3B219; PS2B27
In the case of B1, in assay [1], the Kd amounted to 7.48 nM. In assay [2], the Kd turned out to be 10.4 nM, the koff turned out to be 0.00176 s⁻¹ and the kon amounted to 170000 M⁻¹ s⁻¹. In addition, in assay [3], the EC50 is 9.9 nM. In assay [4], the EC50 is 14.6 nM.
